Data: patent US20210379195A1, “METHODS FOR ALLOGENEIC HEMATOPOIETIC STEM CELL TRANSPLANTATION” (Magenta Therapeutics, Inc., priority 2018, published 2021)

target: T1, CD117 (Homo sapiens, UniProt P10721); assay: In vitro stem cell factor (SCF)-dependent cell proliferation assay (neutral vs antagonist); assay type: cell-based; design: endogenous in cells; host or cells: CD34+ cells dependent on SCF
Excerpt: Neutral antibodies can be identified using, for example, an in in vitro stem cell factor (SCF)-dependent cell proliferation assay. In an SCF dependent cell proliferation assay, a neutral CD117 antibody will not kill CD34+ cells that are dependent on SCF to divide, as a neutral antibody will not block SCF from binding to CD117 such as to inhibit CD117 activity.

T1 sequence (P10721 26-976): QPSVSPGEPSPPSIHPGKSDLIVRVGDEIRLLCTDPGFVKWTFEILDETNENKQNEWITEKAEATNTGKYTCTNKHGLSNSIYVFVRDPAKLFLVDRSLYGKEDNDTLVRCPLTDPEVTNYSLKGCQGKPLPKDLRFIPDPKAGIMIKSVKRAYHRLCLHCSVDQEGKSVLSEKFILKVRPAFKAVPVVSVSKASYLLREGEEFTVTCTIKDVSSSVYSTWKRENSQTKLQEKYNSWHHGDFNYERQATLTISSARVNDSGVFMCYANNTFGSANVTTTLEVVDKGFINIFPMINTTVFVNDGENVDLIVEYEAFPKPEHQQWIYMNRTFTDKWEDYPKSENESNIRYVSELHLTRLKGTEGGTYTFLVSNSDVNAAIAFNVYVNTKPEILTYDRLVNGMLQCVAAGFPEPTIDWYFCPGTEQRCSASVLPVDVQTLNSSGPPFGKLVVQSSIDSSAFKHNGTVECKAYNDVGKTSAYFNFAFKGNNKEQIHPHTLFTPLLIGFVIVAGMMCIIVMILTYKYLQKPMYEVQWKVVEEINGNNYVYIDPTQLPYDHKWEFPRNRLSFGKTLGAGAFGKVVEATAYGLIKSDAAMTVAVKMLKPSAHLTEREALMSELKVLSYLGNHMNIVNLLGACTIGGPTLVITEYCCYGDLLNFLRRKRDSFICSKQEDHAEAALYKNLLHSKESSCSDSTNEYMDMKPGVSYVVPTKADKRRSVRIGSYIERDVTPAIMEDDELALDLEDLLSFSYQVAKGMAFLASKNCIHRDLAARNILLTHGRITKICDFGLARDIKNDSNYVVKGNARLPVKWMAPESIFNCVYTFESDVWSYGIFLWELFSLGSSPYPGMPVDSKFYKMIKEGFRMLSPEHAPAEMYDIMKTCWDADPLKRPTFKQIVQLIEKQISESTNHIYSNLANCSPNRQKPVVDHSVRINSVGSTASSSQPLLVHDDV

| Molecule | effect on CD117 activity (neutral or antagonist antibody) |
| --- | --- |
| Ab61: anti-CD117 antibody, VH SEQ ID NO: 69, VL SEQ ID NO: 70 (antibody, V domains shown) VH: EVQLLESGGGLVQPGGSLRLSCAASGFTFSSYVMIWVRQAPGKGLEWVSSISGDSVTTYYADSVKGRFTISRDNSKNTLYLQMNSLRAEDTAVYYCAKGPPTYHTNYYYMDVWGKGTTVTVSS VL: DIQMTQSPSSVSASVGDRVTITCRASQGISSWLAWYQQKPGKAPKLLIYAASSLQSGVPSRFSGSGSGTDFTLTISSLQPEDFATYYCQQTNSFPYTFGGGTKVEIK | neutral |
| Ab54: anti-CD117 antibody, VH SEQ ID NO: 29, VL SEQ ID NO: 30 (antibody, V domains shown) VH: QVQLVQSGAEVKKPGSSVKVSCKASGGTFSSYAISWVRQAPGQGLEWMGGIIPIFGTANYAQKFQGRVTITADESTSTAYMELSSLRSEDTAVYYCARGGLDTDEFDLWGRGTLVTVSS VL: DIQMTQSPSSLSASVGDRVTITCRASQSINSYLNWYQQKPGKAPKLLIYAASSLQSGVPSRFSGSGSGTDFTLTISSLQPEDFATYYCQQGVSDITFGGGTKVEIK | Antagonist |
| Ab56: anti-CD117 antibody, VH SEQ ID NO: 39, VL SEQ ID NO: 40 (antibody, V domains shown) VH: QVQLVQSGAEVKKPGSSVKVSCKASGGTFSLYAISWVRQAPGQGLEWMGGIIPAFGTANYAQKFQGRVTITADESTSTAYMELSSLRSEDTAVYYCARGGLDTDEFDLWGRGTLVTVSS VL: DIQMTQSPSSLSASVGDRVTITCRASQSINSYLNWYQQKPGKAPKLLIYAASSLQSGVPSRFSGSGSGTDFTLTISSLQPEDFATYYCQQGVSDITFGGGTKVEIK | Antagonist |
| Ab57: anti-CD117 antibody, VH SEQ ID NO: 49, VL SEQ ID NO: 50 (antibody, V domains shown) VH: QVQLVQSGAEVKKPGSSVKVSCKASGGTFSLYAISWVRQAPGQGLEWMGGIIPHFGLANYAQKFQGRVTITADESTSTAYMELSSLRSEDTAVYYCARGGLDTDEFDLWGRGTLVTVSS VL: DIQMTQSPSSLSASVGDRVTITCRASQSINSYLNWYQQKPGKAPKLLIYAASSLQSGVPSRFSGSGSGTDFTLTISSLQPEDFATYYCQQGVSDITFGGGTKVEIK | Antagonist |
| Ab55: anti-CD117 antibody, VH SEQ ID NO: 19, VL SEQ ID NO: 20 (antibody, V domains shown) VH: QVQLVQSGAEVKKPGSSVKVSCKASGGTFRIYAISWVRQAPGQGLEWMGGIIPDFGVANYAQKFQGRVTITADESTSTAYMELSSLRSEDTAVYYCARGGLDTDEFDLWGRGTLVTVSS VL: DIQMTQSPSSLSASVGDRVTITCRASQSINSYLNWYQQKPGKAPKLLIYAASSLQSGVPSRFSGSGSGTDFTLTISSLQPEDFATYYCQQGVSDITFGGGTKVEIK | Antagonist |

target: T1, CD117; assay: Bio-layer interferometry (BLI) binding
Excerpt: In certain embodiments, an anti-CD117 antibody, or antigen binding fragment thereof, has a certain dissociation rate which is particularly advantageous when used as a part of a conjugate. For example, an anti-CD117 antibody has, in certain embodiments, an off rate constant (Koff) for human CD117 and/or rhesus CD117 of 1×10^−2 to 1×10^−3, 1×10^−3 to 1×10^−4, […] or 1×10^−7 to 1×10^−8, as measured by bio-layer interferometry (BLI). In some embodiments, the antibody or antigen-binding fragment thereof binds CD117 (e.g., human CD117 and/or rhesus CD117) with a KD of about 100 nM or less, about 90 nM or less, about 80 nM or less, about 70 nM or less, about 60 nM or less, about 50 nM or less, about 40 nM or less, about 30 nM or less, about 20 nM or less, about 10 nM or less, about 8 nM or less, about 6 nM or less, about 4 nM or less, about 2 nM or less, about 1 nM or less as determined by a Bio-Layer Interferometry (BLI) assay.
Thus, in certain embodiments, an anti-CD117 antibody comprises a heavy chain comprising a CDR set (CDR1, CDR2, and CDR3) as set forth in SEQ ID Nos: 245, 246, and 247, and a light chain comprising a CDR set as set forth in SEQ ID Nos: 248, 249, and […], internalizes in cells expressing CD117, and has a koff rate of 5×10^−4 s^−1 or less as measured by BLI.

| binding characteristics over CK6 | Molecule |
| --- | --- |
| improved binding characteristics | Ab249: human anti-CD117 antibody derived from CK6, VH SEQ ID NO: 238, VL SEQ ID NO: 242 (antibody, V domains shown) VH: EVQLVQSGAEVKKPGESLKISCKGSGYRFTTSWIGWVRQMPGKGLEWMGIIYPGDSDTRYSPSFQGQVTISADKSISTAYLQWSSLKASDTAMYYCARHGLGYNGYEGAFDIWGQGTLVTVSS VL: DIQMTQSPSSLSASVGDRVTITCRASQGIGSALAWYQQKPGKAPKLLIYDASNLETGVPSRFSGSGSGTDFTLTISSLQPEDFATYYCQQLNGYPLTFGQGTRLEIK |
